Target: the molecule itself
Assay: SEC; untagged proteins after on-column TEV cleavage, Superdex 200-HR, 50 mM Tris/HCl pH 8.0, 100 mM NaCl, 2 mM MgCl2, 0.3 mL/min; calibrated with marker proteins

B1: untagged human Fhit (natural protein)
chain: not shown
notes: Fhit (fragile histidine triad), human, 147 amino acids, ~17 kDa; also called fragile histidine triad
  stoichiometry N: 2

Source: PMC9913352, “The Rosetta Stone Hypothesis-Based Interaction of the Tumor Suppressor Proteins Nit1 and Fhit” (Cells, 2023)
